In PMC8568920, “Serum apolipoprotein A-I potentiates the therapeutic efficacy of lysocin E against Staphylococcus aureus” (Nature Communications, 2021):

Key:
[1] = target: biotinylated lysocin E derivative, Bu-type; assay: BLI; BLItz system, room temperature; biotinylated ligand (0.1 mg/ml) immobilised on a streptavidin biosensor; PBS with 0.05% Tween-20; 300 s association and 300 s dissociation
[2] = target: biotinylated lysocin E derivative, natural type; assay: as above

Kd [1]: 3.4 µM
Kd [2]: 3.6 µM
Substance: recombinant human apolipoprotein A-I, wild type (from UniProt P02647 19-267) (natural protein)
